Assay results: PMC5034320, “Modulation of yeast telomerase activity by Cdc13 and Est1 in vitro”

Legend:
Cdc13-BD = target: T1, Cdc13-BD (Saccharomyces cerevisiae, UniProt P32797 451-693); experiment: EMSA; 20-80 nM protein, 30 nM DNA; second BD molecule binds; EMSA: room temperature 5 min (30 C in Fig 5E), 30 nM DNA, 6% native gel, buffer not stated; DMS footprint: 50 mM cacodylate pH 7.0, 25 C 10 min, then 0.05% DMS; conditions: protein: recombinant; tags: 6xHis; label: 5'-32P; single strand
T1 sequence: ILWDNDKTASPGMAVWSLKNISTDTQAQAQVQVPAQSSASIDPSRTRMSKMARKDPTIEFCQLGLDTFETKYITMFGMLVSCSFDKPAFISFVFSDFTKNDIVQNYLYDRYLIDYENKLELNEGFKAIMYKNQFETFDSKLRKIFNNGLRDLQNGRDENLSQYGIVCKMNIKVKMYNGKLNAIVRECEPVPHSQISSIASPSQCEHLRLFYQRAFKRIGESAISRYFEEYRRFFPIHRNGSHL

Cdc13 = target: T2, Cdc13 (Saccharomyces cerevisiae, UniProt P32797 1-924); experiment: EMSA; 20-80 nM Cdc13, 30 nM DNA; EMSA: room temperature 5 min (30 C in Fig 5E), 30 nM DNA, 6% native gel, buffer not stated; DMS footprint: 50 mM cacodylate pH 7.0, 25 C 10 min, then 0.05% DMS; conditions: protein: recombinant, tags: 6xHis
T2 sequence: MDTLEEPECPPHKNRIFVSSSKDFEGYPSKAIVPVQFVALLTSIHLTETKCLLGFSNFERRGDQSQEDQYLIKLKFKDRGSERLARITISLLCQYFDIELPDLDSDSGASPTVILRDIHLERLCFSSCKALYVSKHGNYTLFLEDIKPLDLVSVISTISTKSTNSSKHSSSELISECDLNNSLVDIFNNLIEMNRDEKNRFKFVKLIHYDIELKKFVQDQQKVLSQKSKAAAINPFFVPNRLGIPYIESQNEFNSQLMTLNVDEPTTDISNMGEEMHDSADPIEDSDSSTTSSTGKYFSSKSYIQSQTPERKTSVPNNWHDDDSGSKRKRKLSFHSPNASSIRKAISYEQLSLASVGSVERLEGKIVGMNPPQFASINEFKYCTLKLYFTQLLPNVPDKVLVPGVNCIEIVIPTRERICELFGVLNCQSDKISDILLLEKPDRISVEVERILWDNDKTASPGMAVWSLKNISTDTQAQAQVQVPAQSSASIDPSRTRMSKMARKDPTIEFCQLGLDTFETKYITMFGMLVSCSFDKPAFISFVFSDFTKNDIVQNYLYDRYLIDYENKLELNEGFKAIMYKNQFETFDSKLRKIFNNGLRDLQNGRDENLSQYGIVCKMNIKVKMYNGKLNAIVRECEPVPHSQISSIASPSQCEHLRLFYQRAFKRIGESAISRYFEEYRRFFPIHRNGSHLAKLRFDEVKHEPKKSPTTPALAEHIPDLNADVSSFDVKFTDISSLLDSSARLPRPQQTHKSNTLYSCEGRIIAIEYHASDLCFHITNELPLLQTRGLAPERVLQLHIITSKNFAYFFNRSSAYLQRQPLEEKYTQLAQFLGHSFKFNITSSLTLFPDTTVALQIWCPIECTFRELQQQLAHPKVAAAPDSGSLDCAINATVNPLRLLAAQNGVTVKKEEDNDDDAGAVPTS

Cdc13-2 = target: T3, Cdc13-2 (Saccharomyces cerevisiae, UniProt P32797 1-924, E252K); experiment: EMSA; affinity similar to wild-type Cdc13; EMSA: room temperature 5 min (30 C in Fig 5E), 30 nM DNA, 6% native gel, buffer not stated; DMS footprint: 50 mM cacodylate pH 7.0, 25 C 10 min, then 0.05% DMS; conditions: protein: recombinant; tags: 6xHis; chain copies: 2; label: 5'-32P on T21; 3' overhang 15 nt (T21 strand)
T3 sequence: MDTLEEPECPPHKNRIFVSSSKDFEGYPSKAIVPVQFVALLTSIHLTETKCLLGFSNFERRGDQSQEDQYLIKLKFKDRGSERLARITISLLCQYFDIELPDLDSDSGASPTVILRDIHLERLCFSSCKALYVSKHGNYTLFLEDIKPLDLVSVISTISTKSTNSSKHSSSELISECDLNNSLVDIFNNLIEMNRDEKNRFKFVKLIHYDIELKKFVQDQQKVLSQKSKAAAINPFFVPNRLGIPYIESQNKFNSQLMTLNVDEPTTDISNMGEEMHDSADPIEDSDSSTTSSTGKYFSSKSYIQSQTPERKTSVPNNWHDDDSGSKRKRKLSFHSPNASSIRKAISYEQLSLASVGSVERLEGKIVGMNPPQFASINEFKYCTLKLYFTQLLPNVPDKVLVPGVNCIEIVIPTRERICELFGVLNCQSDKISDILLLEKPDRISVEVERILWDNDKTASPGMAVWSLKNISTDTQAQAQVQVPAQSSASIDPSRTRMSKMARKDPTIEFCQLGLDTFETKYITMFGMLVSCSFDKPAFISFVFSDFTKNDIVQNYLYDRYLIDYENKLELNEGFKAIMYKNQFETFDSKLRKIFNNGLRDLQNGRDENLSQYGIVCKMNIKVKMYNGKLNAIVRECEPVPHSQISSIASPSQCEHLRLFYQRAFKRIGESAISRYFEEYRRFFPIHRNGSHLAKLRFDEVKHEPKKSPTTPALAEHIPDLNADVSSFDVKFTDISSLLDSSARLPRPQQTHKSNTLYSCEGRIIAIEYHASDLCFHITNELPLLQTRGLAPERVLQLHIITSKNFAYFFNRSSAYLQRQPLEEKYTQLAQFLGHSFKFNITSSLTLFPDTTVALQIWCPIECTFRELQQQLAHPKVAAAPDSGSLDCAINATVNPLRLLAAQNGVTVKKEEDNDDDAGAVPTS

Est1-TAP = target: T4, Est1-TAP (Saccharomyces cerevisiae, UniProt P17214 1-699); experiment: EMSA; Est1-TAP alone; no stable complex; EMSA: room temperature 5 min (30 C in Fig 5E), 30 nM DNA, 6% native gel, buffer not stated; DMS footprint: 50 mM cacodylate pH 7.0, 25 C 10 min, then 0.05% DMS; conditions: protein: recombinant; label: 5'-32P on T21; 3' overhang 15 nt (T21 strand)
T4 sequence: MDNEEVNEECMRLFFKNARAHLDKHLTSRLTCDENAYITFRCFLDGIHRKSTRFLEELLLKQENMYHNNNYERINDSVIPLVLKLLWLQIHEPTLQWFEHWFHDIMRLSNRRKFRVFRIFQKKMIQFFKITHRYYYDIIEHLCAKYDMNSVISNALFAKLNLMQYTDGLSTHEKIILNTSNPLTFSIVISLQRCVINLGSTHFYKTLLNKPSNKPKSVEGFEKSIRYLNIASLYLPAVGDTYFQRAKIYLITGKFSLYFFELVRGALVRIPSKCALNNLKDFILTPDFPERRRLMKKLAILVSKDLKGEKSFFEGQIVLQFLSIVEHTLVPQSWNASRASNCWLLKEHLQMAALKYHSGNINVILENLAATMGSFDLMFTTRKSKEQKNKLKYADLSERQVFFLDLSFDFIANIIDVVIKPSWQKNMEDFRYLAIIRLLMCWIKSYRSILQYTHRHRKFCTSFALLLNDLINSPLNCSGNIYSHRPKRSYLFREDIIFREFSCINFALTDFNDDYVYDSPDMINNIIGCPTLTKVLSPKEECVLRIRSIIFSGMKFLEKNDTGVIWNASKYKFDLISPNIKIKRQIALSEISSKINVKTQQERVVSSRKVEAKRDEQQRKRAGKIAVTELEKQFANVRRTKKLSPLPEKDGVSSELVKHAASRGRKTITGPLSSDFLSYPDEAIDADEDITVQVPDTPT

## ATGGCTAGGTAGCCGAATTGCGTAGGTGGGTGTGGTGTGTGTGGG (ssDNA) [T21]
Cdc13-BD
  binding result: binds
Cdc13; label: 5'-32P, single strand
  binding result: binds

B1: T21/C20 tailed duplex (mixed)
DNA 1: ATGGCTAGGTAGCCGAATTGCGTAGGTGGGTGTGGTGTGTGTGGG
DNA 2: CCCACCTACGCAATTCGGCTACCTAGCCAT
modifications: 3'-NH2 on C20
Cdc13-2
  binding result: binds
Cdc13; chain copies: 2, label: 5'-32P on T21, 3' overhang 15 nt (T21 strand)
  binding result: binds
Est1-TAP
  binding result: no binding
